{"source": "paper PMC6448830", "about": "(2019)", "binders": {"B1": {"name": "A. trivirgatus CD48-Fc fusion protein (Fc fusion)", "chain": "TSIQGNSVDVINAISGGNVTLNISESLPENVREITWFCTYHQKIADWDVKRLKYFDNKFKGRVRLDYQSGALYISKIQKEDANIYIMRVLKETMYEQEWKIRLQVFDPVPKPDIKIEKTAKVEDDCYLKLSCVIPDESVNYTWYGDKEPFPKEFQSGVLETTLKSQDYSRCYTCQVSNPVSSKNDTVCFS", "modifications": "biotin (biotinylated host CD48-Fc in the blocking ELISA)"}, "B2": {"name": "human CD48-Fc fusion protein (Fc fusion)", "chain": "QGHLVHMTVVSGSNVTLNISESLPENYKQLTWFYTFDQKIVEWDSRKSKYFESKFKGRVRLDPQSGALYISKVQKEDNSTYIMRVLKKTGNEQEWKIKLQVLDPVPKPVIKIEKIEDMDDNCYLKLSCVIPGESVNYTWYGDKRPFPKELQNSVLETTLMPHNYSRCYTCQVSNSVSSKNGTVCLSPPCTLARS", "modifications": "biotin (biotinylated hCD48-Fc in the blocking assays)"}}, "test_in_all_cases": "SPR", "key": {"[1]": {"target": "T1, A. trivirgatus 2B4-Fc fusion protein (Aotus trivirgatus)", "T1 chain": "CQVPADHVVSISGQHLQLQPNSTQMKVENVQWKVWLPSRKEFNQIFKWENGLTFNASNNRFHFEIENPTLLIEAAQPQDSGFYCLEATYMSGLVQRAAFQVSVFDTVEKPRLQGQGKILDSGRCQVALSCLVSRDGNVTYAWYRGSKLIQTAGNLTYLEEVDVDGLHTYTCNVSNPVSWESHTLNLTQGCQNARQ"}, "[2]": {"target": "T2, human 2B4-Fc fusion protein (human, UniProt Q9BZW8 22-229)", "T2 chain": "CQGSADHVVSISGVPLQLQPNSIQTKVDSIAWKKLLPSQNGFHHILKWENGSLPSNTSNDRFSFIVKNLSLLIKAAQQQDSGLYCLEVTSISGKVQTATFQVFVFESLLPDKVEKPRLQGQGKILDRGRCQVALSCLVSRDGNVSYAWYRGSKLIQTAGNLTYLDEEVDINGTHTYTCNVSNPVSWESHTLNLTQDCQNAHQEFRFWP"}, "[3]": {"target": "T2, human 2B4-Fc fusion protein"}}, "data": [{"binder": "B1", "values": [{"measurement": "koff", "setting": "[1]", "value": 0.000489, "unit": "s⁻¹"}]}, {"binder": "B2", "values": [{"measurement": "koff", "setting": "[2]", "value": 0.0224, "unit": "s⁻¹"}, {"measurement": "Kd", "setting": "[3]", "value": 23, "unit": "nM"}]}]}
